The values below come from patent publication US20250051437A1 (University of California, published 2025).

For test [1], the target named is T1, human CDH17-mGFP fusion protein overexpressed on HEK293T cells (clone G11) (human, UniProt Q12864 23-832).
T1 construct: also called HEK293T CDH17mGFP Clone G11; HEK293T Human CDH17mGFP G11; not shown: mGFP fluorescent protein fused to CDH17
The test is described as follows: KinExA, cell-based, HEK293T CDH17mGFP clone G11. The method, then: (§1) The cell-based antibody affinity (KD) of the anti-CDH17 antibodies was measured by KinExA 4000 (Sapidyne Instrument, Boise, Idaho). Briefly, HEK293T overexpressing CDH17-fluorescent protein fusion (i.e., human CDH17-mGFP, monkey CDH17-mGFP, mouse CDH17-mGFP or rat CDH17-mGFP) were detached with Versene and equilibrated with either 50 pM, 200 pM, 20 nM, or 50 nM antibody in 2% FBS/DMEM at 4° C. overnight. The cell concentration started at 5×10⁶ cells/mL or 1×10⁷ cells/mL and 2-fold serial dilutions were performed up to 10 points. The next day, the cells were centrifuged at 1500 rpm for 10 min and the supernatants were saved. […] In contrast, while the humanized anti-CDH17 antibody, 07-0653-h43, fails to bind mouse CDH17 protein, it binds rat CDH17 protein equally well as to human and monkey CDH17 protein such that its Kp is less than about 1 nM for human, monkey and rat CDH17 proteins with overlapping 95% confidence interval values.

In test [2] the target is T1, human CDH17-mGFP fusion protein …. In words: KinExA, cell-based, HEK293T overexpressing human CDH17-mGFP (FIG. 16). The method, then:
as §1

For test [3] the target is unchanged. In words: flow cytometry (iQue) on HEK293T CDH17 mGFP clone G11 (human), 1 µg Ab.
For test [4], the target named is T2, human cadherin-17 (CDH17), endogenously expressed on human cancer cell lines (LS513, SNU-C1, PaTu8988s, … (human, UniProt Q12864 23-832)).
T2 construct: also called LS513 (Colon, CDH17+); HPAF2
The test is described as follows: flow cytometry on LS513 cells (CDH17+), 20 µg/ml. For orientation: Flow cytometry measures light scatter and fluorescence of single cells or particles in a stream.

For test [5], the target named is T2, human cadherin-17 (CDH17), endogenously …. In words: flow cytometry (iQue) on PATU8988S cells, 0.2 µg Ab.
In test [6] the target is T3, rat CDH17 fused to moxGFP, overexpressed on HEK293T cells (rat, UniProt P55281 22-827).
T3 construct: whole, on cells; also called HEK293T Rat CDH17mGFP mass pop; rat CDH17-moxGFP
T3 sequence (P55281 22-827): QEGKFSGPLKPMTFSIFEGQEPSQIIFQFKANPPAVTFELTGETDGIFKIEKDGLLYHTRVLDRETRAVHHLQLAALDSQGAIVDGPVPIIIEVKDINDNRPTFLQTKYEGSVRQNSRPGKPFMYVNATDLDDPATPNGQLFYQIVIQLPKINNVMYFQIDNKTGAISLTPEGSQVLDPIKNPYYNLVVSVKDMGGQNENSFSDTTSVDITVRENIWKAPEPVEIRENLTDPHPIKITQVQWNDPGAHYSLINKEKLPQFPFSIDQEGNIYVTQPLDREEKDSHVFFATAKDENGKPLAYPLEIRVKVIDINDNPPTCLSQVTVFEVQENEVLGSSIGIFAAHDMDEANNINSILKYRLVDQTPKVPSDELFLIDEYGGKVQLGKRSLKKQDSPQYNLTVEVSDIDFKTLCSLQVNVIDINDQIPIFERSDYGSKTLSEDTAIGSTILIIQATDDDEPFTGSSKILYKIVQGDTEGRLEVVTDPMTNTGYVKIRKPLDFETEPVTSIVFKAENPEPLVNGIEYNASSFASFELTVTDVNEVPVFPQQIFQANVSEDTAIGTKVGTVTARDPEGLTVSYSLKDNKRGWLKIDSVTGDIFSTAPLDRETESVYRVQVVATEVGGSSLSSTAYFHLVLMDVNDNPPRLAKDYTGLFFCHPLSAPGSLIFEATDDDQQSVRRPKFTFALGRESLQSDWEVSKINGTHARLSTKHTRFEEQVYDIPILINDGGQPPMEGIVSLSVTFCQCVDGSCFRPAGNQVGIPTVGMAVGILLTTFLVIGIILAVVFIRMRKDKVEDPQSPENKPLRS
In words: KinExA, cell-based, HEK293T overexpressing rat CDH17 fusion (FIG. 16). How it is done:
as §1
A general note: In KinExA the mixture passes briefly over coated beads that capture the unbound partner.

The target of test [7] is T2, human cadherin-17 (CDH17), endogenously …. The test is described as follows: flow cytometry (iQue) on SNUC1 cells, 1 µg Ab.
Test [8] has the same target. In words: KinExA, cell-based, SNUC1 cells.
Test [9] deals with T3, rat CDH17 fused to moxGFP, …. In words: KinExA, cell-based, HEK293T rat CDH17mGFP mass population. The method, then:
as §1

For test [10], the target named is T4, recombinant CDH17 extracellular domain (ECD) with 6x His tag (human, UniProt Q12864 23-787).
T4 construct: also called Recombinant CDH17 ECD-6xhis tag
The test is described as follows: ELISA on recombinant CDH17 ECD-6xHis. In general terms: ELISA stands for enzyme-linked immunosorbent assay.

Test [11] deals with T2, human cadherin-17 (CDH17), endogenously …. In words: flow cytometry (iQue) on LS513 cells, 0.2 µg Ab.
For test [12], the target named is T3, rat CDH17 fused to moxGFP, …. In words: flow cytometry on HEK293T rat CDH17mGFP mass population, 20 µg/ml.
Test [13] has as its target T2, human cadherin-17 (CDH17), endogenously …. In words: flow cytometry (iQue) on SNUC1 cells, 0.2 µg Ab.
Test [14] has as its target T1, human CDH17-mGFP fusion protein …. The test is described as follows: KinExA, cell-based, HEK293T human CDH17mGFP G11 (same value as r12). The method, then:
as §1

The target of test [15] is T2, human cadherin-17 (CDH17), endogenously …. In words: flow cytometry (iQue) on LS513 cells, 1 µg Ab.
In test [16] the target is T1, human CDH17-mGFP fusion protein …. The test is described as follows: flow cytometry (iQue) on HEK293T CDH17 mGFP clone G11 (human), 0.2 µg Ab.
For test [17], the target named is T5, mouse CDH17-mGFP fusion protein overexpressed on HEK293T cells (mouse, UniProt Q9R100 26-827).
T5 construct: also called HEK293T Mouse CDH17mGFP mass; not shown: mGFP fluorescent protein
T5 sequence (Q9R100 26-827): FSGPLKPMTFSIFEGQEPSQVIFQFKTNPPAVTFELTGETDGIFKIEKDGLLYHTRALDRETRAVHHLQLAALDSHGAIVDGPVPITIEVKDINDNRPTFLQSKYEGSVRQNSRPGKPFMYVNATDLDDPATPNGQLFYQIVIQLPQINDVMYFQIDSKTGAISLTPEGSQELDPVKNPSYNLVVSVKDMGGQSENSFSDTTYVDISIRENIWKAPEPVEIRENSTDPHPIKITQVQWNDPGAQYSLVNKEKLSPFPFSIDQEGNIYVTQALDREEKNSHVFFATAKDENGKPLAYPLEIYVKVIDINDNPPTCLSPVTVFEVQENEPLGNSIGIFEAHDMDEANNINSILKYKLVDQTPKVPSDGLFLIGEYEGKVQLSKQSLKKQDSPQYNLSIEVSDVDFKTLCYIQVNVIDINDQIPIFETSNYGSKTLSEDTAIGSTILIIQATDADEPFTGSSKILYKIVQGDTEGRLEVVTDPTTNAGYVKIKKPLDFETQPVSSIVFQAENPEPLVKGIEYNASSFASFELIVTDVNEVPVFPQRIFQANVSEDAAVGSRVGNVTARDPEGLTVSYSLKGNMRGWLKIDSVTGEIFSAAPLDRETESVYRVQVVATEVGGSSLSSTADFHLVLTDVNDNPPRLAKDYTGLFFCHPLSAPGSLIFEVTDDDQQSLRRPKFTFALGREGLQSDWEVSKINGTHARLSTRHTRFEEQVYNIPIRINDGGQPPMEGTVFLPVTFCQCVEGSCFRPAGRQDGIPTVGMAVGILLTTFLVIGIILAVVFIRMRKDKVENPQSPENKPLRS
The test is described as follows: flow cytometry on HEK293T mouse CDH17mGFP mass population, 20 µg/ml.

For test [18], the target named is T1, human CDH17-mGFP fusion protein …. In words: flow cytometry on HEK293T human CDH17mGFP G11, 20 µg/ml.
Test [19] addresses T2, human cadherin-17 (CDH17), endogenously …. In words: flow cytometry (iQue) on PATU8988S cells, 1 µg Ab.

The term Kd denotes a measure of binding affinity in units of concentration. The low end stands for higher affinity, the high end for lower affinity. Broadly, the EC50 is the concentration at which the effect is half-maximal.

B1: humanized anti-CDH17 antibody 07-0653-h43 (antibody, human IgG1, V domains shown)
VH: QVQLVQSGAEVKKPGASVKVSCKASGYTFTDYYMNWVRQAPGQGLEWMGVIYPYSGGIGYAQKFQGRVTMTVDKSTSTAYMELSSLRSEDTAVYYCARGRGDYFGLFDFWGQGTTVTVSS
VL: DIQLTQSPSSLSASVGDRVTITCRATSSLSYIHWYQQKPGKAPKPLIYEISKLASGVPSRFSGSGSGTDYTLTISSLQPEDFATYYCQQWNYPFTFGQGTKLEIK
notes: also called CDH17-653-h43
In the case of B1, the Kd in [1] was 0.736 nM; in test [2], < 1 nM; in [6] it was < 1 nM; in test [8], 0.206 nM; in [9], 0.535 nM; in test [14] it was 0.736 nM. Further, the “Antibody Binding Activity by Flow iQue” value came out at 191000 in [3]; 48100 in [5]; 61400 in [7]; 1.79e+06 in test [11]; 77200 in [13]; 1.83e+06 in test [15]. Also, the entries for the “Antibody Binding Activity by Flow iQue” value in test [16] and in test [19] were 51800 and 52200, respectively. For the same molecule, the “Antibody Binding Activity by Flow Cytometry” value in test [4] worked out at 24300. Besides, the concentration giving a half-maximal response (EC50) in [10] was found to be 1.13 nM. Further, the figures for the “Cross Reactivity by Flow” value in test [12], in test [17] and in test [18] were 71800, 2460 and 51800, respectively.
